Consider 67 sequences from the supplement of paper PMC10724198.

± gives the standard deviation of the averaged measurements.

The data set deals with Saccharomyces cerevisiae. The data set can be described thus: protein stability index of tFT-peptide fusion (C-terminal peptide) (PSI (0-1 scale)); higher = more stable (slower turnover). The following applies: temperature: 30 C. How it is done: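 MPS profiling in S. cerevisiae of the yeast C-terminome library: the last 12 aa of each annotated ORF are fused to the C-terminus of a sfGFP-mCherry timer, after a GGGS linker. Cells are FACS-sorted into 8 mCherry/sfGFP bins and deep-sequenced. PSI runs from 0 (unstable) to 1 (stable); wild type and das1Δ backgrounds, two technical replicates each.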

[1] abbreviates: genetic background: das1 deletion.

GSSGRLTASPVY [PEX2 C-terminal 12 aa]: the protein stability index reads like this: under setting [1], 0.696 ± 0.023; (genetic background: wild type) 0.684 ± 0.022.

GTKEYCKMIDFL [YLR108C C-terminal 12 aa]: the protein stability index by setting is: under setting [1], 0.704 ± 0.014; (genetic background: wild type) 0.688 ± 0.019.

Consider GTKEYYKGYEYL [MRX16 C-terminal 12 aa], for which the protein stability index is, setting by setting: under setting [1], 0.6984 ± 0.0016; (genetic background: wild type) 0.6641 ± 0.0017.

For GTLESFFKRKAK [POL32 C-terminal 12 aa], the protein stability index was found to be 0.732 ± 0.015 under setting [1] and 0.707 ± 0.03 (genetic background: wild type).

Consider GVETLLDIFMKF [ARG82 C-terminal 12 aa], for which the protein stability index turned out to be 0.74146 ± 0.00055 under setting [1] and 0.706 ± 0.02 (genetic background: wild type).

Consider GVFEADGLEAVH [YLR235C C-terminal 12 aa], for which the protein stability index was found to be 0.717 ± 0.029 under setting [1] and 0.7688 ± 0.0057 (genetic background: wild type).

Consider GVRRSVRLNNRV [MCM4 C-terminal 12 aa], for which the protein stability index is, setting by setting: under setting [1], 0.699 ± 0.019; (genetic background: wild type) 0.681 ± 0.015.

Turning to GVSFHVQVTMPQ [TRS33 C-terminal 12 aa], the protein stability index worked out at 0.711 ± 0.023 under setting [1] and 0.704 ± 0.049 (genetic background: wild type).

Turning to GWEVLSVYSFTR [MTQ2 C-terminal 12 aa], the protein stability index reads like this: under setting [1], 0.727 ± 0.042; (genetic background: wild type) 0.737 ± 0.098.

Regarding GWFEEVRDHKRH [SKY1 C-terminal 12 aa], the protein stability index came to 0.731 ± 0.017 under setting [1] and 0.753 ± 0.022 (genetic background: wild type).

The sequence GWPLKDGNKKRK [OTO1 C-terminal 12 aa] had a protein stability index under setting [1] of 0.682 ± 0.025 and a protein stability index (genetic background: wild type) of 0.706 ± 0.065.

For GYCFEFTLYNRK [DFR1 C-terminal 12 aa], the protein stability index reads like this: under setting [1], 0.7243 ± 0.0021; (genetic background: wild type) 0.688 ± 0.013.

As to “GYKPIILYHVIH [YDL025W-A C-terminal 12 aa]”, the protein stability index came out at 0.691 ± 0.024 under setting [1] and 0.598 ± 0.025 (genetic background: wild type).

In the case of GYYQRRNKRKRA [UTP20 C-terminal 12 aa], the protein stability index reads like this: under setting [1], 0.749 ± 0.012; (genetic background: wild type) 0.69 ± 0.046.

In the case of HCGARLTVIPKK [YER137C C-terminal 12 aa], the protein stability index is, setting by setting: under setting [1], 0.693 ± 0.016; (genetic background: wild type) 0.688 ± 0.028.

Regarding HELIKKRWDDRK [NCE101 C-terminal 12 aa], the protein stability index amounted to 0.712 ± 0.016 under setting [1] and 0.679 ± 0.018 (genetic background: wild type).

HETFDFRNLKLR [YER121W C-terminal 12 aa]: the protein stability index stood at 0.701 ± 0.043 under setting [1] and 0.698 ± 0.024 (genetic background: wild type).

In the case of HETMVNGSKRRL [DIF1 C-terminal 12 aa], the protein stability index stood at 0.686 ± 0.014 under setting [1] and 0.639 ± 0.014 (genetic background: wild type).

On to HEYVTINGDYRS [ARG7 C-terminal 12 aa], for which the protein stability index by setting is: under setting [1], 0.679 ± 0.017; (genetic background: wild type) 0.702 ± 0.032.

On to HFASSLVSFLSK [ICT1 C-terminal 12 aa], for which the protein stability index by setting is: under setting [1], 0.727 ± 0.028; (genetic background: wild type) 0.7183 ± 0.0037.

Consider HIDIPDFAKWDI [SUL2 C-terminal 12 aa], for which the protein stability index came out at 0.727 ± 0.013 under setting [1] and 0.719 ± 0.009 (genetic background: wild type).

HLYSTLLFHSVN [RRG8 C-terminal 12 aa]: the protein stability index runs as follows: under setting [1], 0.728 ± 0.013; (genetic background: wild type) 0.543 ± 0.033.

Turning to HNDNSGTVLGTA [RBD2 C-terminal 12 aa], the protein stability index under setting [1] amounted to 0.7 ± 0.017 and the protein stability index (genetic background: wild type) came to 0.728 ± 0.032.

For HNGKNKNRNSKK [MPP6 C-terminal 12 aa], the protein stability index came to 0.691 ± 0.03 under setting [1] and 0.669 ± 0.016 (genetic background: wild type).

The sequence HPFLLWQGQVFF [YCR022C C-terminal 12 aa] yielded a protein stability index under setting [1] of 0.729 ± 0.012 and a protein stability index (genetic background: wild type) of 0.6995 ± 0.0021.

HQDSAKYTHYYL [YER158C C-terminal 12 aa]: the protein stability index is 0.696 ± 0.016 under setting [1] and 0.652 ± 0.0081 (genetic background: wild type).

For HTMENIFAGKLD [CUE4 C-terminal 12 aa], the protein stability index runs as follows: under setting [1], 0.7177 ± 0.0019; (genetic background: wild type) 0.69 ± 0.011.

Turning to IAKRFAKALGRS [ARN2 C-terminal 12 aa], the protein stability index was determined as 0.711 ± 0.0084 under setting [1] and 0.695 ± 0.016 (genetic background: wild type).

IAQNVSRSSQQV [YMD8 C-terminal 12 aa]: the protein stability index was found to be 0.6875 ± 0.00089 under setting [1] and 0.731 ± 0.016 (genetic background: wild type).

Regarding ICKALVKQDLGL [LAP2 C-terminal 12 aa], the protein stability index runs as follows: under setting [1], 0.6972 ± 0.002; (genetic background: wild type) 0.657 ± 0.035.

Regarding IDIPISVRQVTK [BUL1 C-terminal 12 aa], the protein stability index runs as follows: under setting [1], 0.707 ± 0.0073; (genetic background: wild type) 0.696 ± 0.013.

The sequence IDKFLDHIGKSQ [FBP1 C-terminal 12 aa] had a protein stability index under setting [1] of 0.698 ± 0.025 and a protein stability index (genetic background: wild type) of 0.703 ± 0.012.

As for IDSIDDLVDSDT [NPP1 C-terminal 12 aa], the protein stability index under setting [1] worked out at 0.6907 ± 0.0066 and the protein stability index (genetic background: wild type) is 0.685 ± 0.015.

For IEALYKLVEEKM [NQM1 C-terminal 12 aa], the protein stability index under setting [1] came out at 0.701 ± 0.017 and the protein stability index (genetic background: wild type) was 0.6797 ± 0.0027.

In the case of IEKSKSDRRKLL [YHR022C C-terminal 12 aa], the protein stability index under setting [1] is 0.728 ± 0.063 and the protein stability index (genetic background: wild type) stood at 0.2695 ± 0.0021.

Take IELQLTEIPKHK [FIN1 C-terminal 12 aa]: the protein stability index stood at 0.701 ± 0.022 under setting [1] and 0.727 ± 0.085 (genetic background: wild type).

With IGELLEGIRMSI [BIT2 C-terminal 12 aa], the protein stability index is, setting by setting: under setting [1], 0.694 ± 0.012; (genetic background: wild type) 0.729 ± 0.091.

Take IGPLAFLVFKTA [DYN2 C-terminal 12 aa]: the protein stability index reads like this: under setting [1], 0.67 ± 0.02; (genetic background: wild type) 0.18 ± 0.011.

Sequence IHENEESNENEG [RQC1 C-terminal 12 aa] registered a protein stability index under setting [1] of 0.702 ± 0.0099 and a protein stability index (genetic background: wild type) of 0.663 ± 0.011.

Take IHYLLHIERERK [YOR385W C-terminal 12 aa]: the protein stability index reads like this: under setting [1], 0.683 ± 0.037; (genetic background: wild type) 0.681 ± 0.014.

Turning to IIRSEKKKKEEQ [YBR292C C-terminal 12 aa], the protein stability index by setting is: under setting [1], 0.748 ± 0.041; (genetic background: wild type) 0.659 ± 0.039.

IKETIQRLTDDR [GMC2 C-terminal 12 aa]: the protein stability index is, setting by setting: under setting [1], 0.661 ± 0.018; (genetic background: wild type) 0.676 ± 0.015.

For the sequence “IKIRIYSPRSIS [YDL240C-A C-terminal 12 aa]”, the protein stability index turned out to be 0.715 ± 0.017 under setting [1] and 0.519 ± 0.021 (genetic background: wild type).

Regarding IKKYNITSPFLD [NSE4 C-terminal 12 aa], the protein stability index reads like this: under setting [1], 0.696 ± 0.022; (genetic background: wild type) 0.686 ± 0.004.

IKRRSNVGVVML [NMT1 C-terminal 12 aa]: the protein stability index runs as follows: under setting [1], 0.6647 ± 0.003; (genetic background: wild type) 0.6363 ± 0.0032.

In the case of IKSVHVDLSLDK [ALD3 C-terminal 12 aa], the protein stability index under setting [1] worked out at 0.717 ± 0.022 and the protein stability index (genetic background: wild type) turned out to be 0.704 ± 0.043.

ILHERNIPLEKI [TPT1 C-terminal 12 aa]: the protein stability index amounted to 0.709 ± 0.021 under setting [1] and 0.701 ± 0.048 (genetic background: wild type).

ILIRKKLKAENI [OPY1 C-terminal 12 aa] had a protein stability index under setting [1] of 0.677 ± 0.021 and a protein stability index (genetic background: wild type) of 0.646 ± 0.053.

As to ILLHLEYAAAYS [STN1 C-terminal 12 aa], the protein stability index is, setting by setting: under setting [1], 0.521 ± 0.033; (genetic background: wild type) 0.552 ± 0.02.

On to INILPVRKKKKV [SAS4 C-terminal 12 aa], for which the protein stability index by setting is: under setting [1], 0.705 ± 0.024; (genetic background: wild type) 0.685 ± 0.036.

INKASVKFFFFA [YJL119C C-terminal 12 aa]: the protein stability index was 0.637 ± 0.0095 under setting [1] and 0.227 ± 0.0039 (genetic background: wild type).

INNTDITLYNDV [YPL068C C-terminal 12 aa]: the protein stability index was determined as 0.707 ± 0.019 under setting [1] and 0.696 ± 0.056 (genetic background: wild type).

For the sequence IQELVNTIRELQ [YPL077C C-terminal 12 aa], the protein stability index is, setting by setting: under setting [1], 0.69 ± 0.018; (genetic background: wild type) 0.642 ± 0.0078.

With IQISDVSMSPSL [PEX31 C-terminal 12 aa], the protein stability index worked out at 0.6811 ± 0.00011 under setting [1] and 0.717 ± 0.019 (genetic background: wild type).

Regarding IQKDSMVHPGKK [VAC7 C-terminal 12 aa], the protein stability index is 0.6694 ± 0.0052 under setting [1] and 0.663 ± 0.034 (genetic background: wild type).

As for IQQTNSFLREII [YDL211C C-terminal 12 aa], the protein stability index was determined as 0.692 ± 0.0098 under setting [1] and 0.7056 ± 0.0041 (genetic background: wild type).

With IRLLTYLLRKIE [YLR230W C-terminal 12 aa], the protein stability index came out at 0.654 ± 0.033 under setting [1] and 0.351 ± 0.023 (genetic background: wild type).

In the case of ISFDLCGKQNFQ [MTC7 C-terminal 12 aa], the protein stability index under setting [1] was 0.705 ± 0.056 and the protein stability index (genetic background: wild type) is 0.719 ± 0.044.

ISIALEGHTLFL [PDE1 C-terminal 12 aa] yielded a protein stability index under setting [1] of 0.715 ± 0.02 and a protein stability index (genetic background: wild type) of 0.70608 ± 0.00038.

For the sequence ISIEELAQYLKK [RIB3 C-terminal 12 aa], the protein stability index is 0.70628 ± 0.00065 under setting [1] and 0.672 ± 0.049 (genetic background: wild type).

In the case of ISKLKGISKPSP [MDS3 C-terminal 12 aa], the protein stability index under setting [1] turned out to be 0.682 ± 0.014 and the protein stability index (genetic background: wild type) stood at 0.687 ± 0.023.

Take ISNLPECLGNLC [ANR2 C-terminal 12 aa]: the protein stability index runs as follows: under setting [1], 0.6968 ± 0.0047; (genetic background: wild type) 0.6926 ± 0.006.

As for ITKSSNKFVNNV [YNL043C C-terminal 12 aa], the protein stability index is 0.665 ± 0.022 under setting [1] and 0.736 ± 0.091 (genetic background: wild type).

The sequence ITLESGSYKFQD [SRP40 C-terminal 12 aa] yielded a protein stability index under setting [1] of 0.695 ± 0.025 and a protein stability index (genetic background: wild type) of 0.639 ± 0.0026.

Take ITSKRKAELLLK [DIS3 C-terminal 12 aa]: the protein stability index runs as follows: under setting [1], 0.723 ± 0.062; (genetic background: wild type) 0.7544 ± 0.007.

For IVRPLELKYFGR [FCY22 C-terminal 12 aa], the protein stability index amounted to 0.7236 ± 0.0033 under setting [1] and 0.688 ± 0.04 (genetic background: wild type).

In the case of IWVVDSLGSLVG [YPL142C C-terminal 12 aa], the protein stability index by setting is: under setting [1], 0.6847 ± 0.00084; (genetic background: wild type) 0.699 ± 0.037.
